First the molecules themselves.
T1: cynomolgus monkey CD3 protein (ACRO Biosystems, Cat. No.: CDD-C52W4) (cynomolgus monkey, UniProt Q95LI5 22-117)
T1 sequence (looked up): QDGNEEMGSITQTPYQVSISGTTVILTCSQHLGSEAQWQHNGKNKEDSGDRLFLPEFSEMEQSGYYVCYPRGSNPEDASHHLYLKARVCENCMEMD

B1: anti-LILRB4xCD3 bispecific antibody huB1G5-CD3Fab (bispecific antibody, human IgG1, lambda, L234A L235A)
heavy 1: not shown
light: QAVVTQEPSLTVSPGGTVTLTCRSSTGAVTTSNYANWVQQKPGQAPRGLIGGTNKRAPGVPARFSGSLLGGKAALTLSGAQPEDEAEYFCALWYSNLWVFGGGTKLTVLGQPKAAPSVTLFPPSSEELQANKATLVCLISDFYPGAVTVAWKADSSPVKAGVETTTPSKQSNNKYAASSYLSLTPEQWKSHRSYSCQVTHEGSTVEKTVAPTEC
heavy 2: EVQLVESGGGLVQPGGSLRLSCAASESIFSSNVMGWYRQAPGKQRELVAAVGIQGLTKIGDSVKGRFTISRDNAKNSVYLQMNSLRAEDTAVYYCAAGAYVRFLQQSPDYWGQGTQVTVSSEPKSSDKTHTCPPCPAPEAAGGPSVFLFPPKPKDTLMISRTPEVTCVVVAVSHEDPEVKFNWYVDGVEVHNAKTKPREEQYNSTYRVVSVLTVLHQDWLNGKEYKCKVSNKALAAPIEKTISKAKGQPREPQVCTLPPSRDELTKNQVSLSCAVKGFYPSDIAVEWESNGQPENNYKTTPPVLDSDGSFFLVSKLTVDKSRWQQGNVFSCSVMHEALHNHYTQKSLSLSPGK
notes: HC1: CD3Fab heavy chain-knob; LC1: CD3Fab light chain; HC2: huB1G5-hole (VHH huB1G5-3 and Fc hole); One anti-LILRB4 VHH, one anti-CD3 Fab, knob-in-hole Fc
B2: anti-LILRB4xCD3 bispecific antibody huB1G5-CD3-2VHH (bispecific antibody, human IgG1, lambda, L234A L235A)
heavy 1: not shown
light: B1 light
heavy 2: B1 heavy 2
notes: HC1: huB1G5-CD3Fab heavy chain-knob (VHH, GGGGS, hu34H1-VH, CH1, Fc knob); LC1: CD3Fab light chain; HC2: huB1G5-hole; Two anti-LILRB4 VHHs, one anti-CD3 Fab
B3: anti-LILRB4xCD3 bispecific antibody huB1G5-ScFv-2VHH (bispecific antibody)
heavy 1: not shown
heavy 2: B1 heavy 2
notes: HC1: huB1G5-Hu34ScFv-knob (VHH, GGGGS, 23L2 ScFv, Fc knob); HC2: huB1G5-hole
B4: anti-LILRB4 chimeric antibody B1A2 (antibody, human IgG1, V domains shown)
VH: QVQLVESGGGLVQPGGSLRLSCAASGFTFSSYTMSWVRQAPGKGLEWISDINNDGGKTYYAFSVEGRFTISRDNAKNTLYLQMNSLKPEDTAVYYCVRDHQYTSRNGDRGQGTQVTVSS
notes: also called Camelid-derived anti-LILRB4 VHH B1A2-Fc
B5: anti-LILRB4 chimeric antibody 1H12 (antibody, human IgG1, V domains shown)
VH: EVQVVESGGGLVQAGGSLRLSCAASETIFSSNVMGWYRQAHGKQRELVAATGINGVTKYADSVKGRFTISRDNAKNTVYLQMNSLNVEDTAVYYCAAGVWRNFVMRSPDYWGQGTQVTVSS
notes: also called Camelid-derived anti-LILRB4 VHH 1H12-Fc
B6: h193 (a fully human monoclonal antibody against LILRB4) (antibody, human IgG1, kappa, V domains shown)
VH: EVQLVESGGGLVQPGGSLRLSCAASGFSLSSSYWISWVRQAPGKGLEWIGSIDSGSVGITYYATWVKGRFTISRDNSKNTLYLQMNSLRAEDTAVYYCARHGDNWALDLWGQGTLVTVSS
VL: DLVMTQSPSTLSASVGDRVTITCQASQSINSWLAWYQQKPGKPPKLLIYKASTLASGVSSRFSGSGSGTEFTLTISSLQPDDVATYYCQHGYIRGDLDNVFGGGTKVEIKR
notes: Control antibody; also called antibody h193; control antibody h193
B7: anti-LILRB4 chimeric antibody B1G5 (antibody, human IgG1, V domains shown)
VH: EVQLVESGGGLVQAGGSLRLSCAASESIFSSNVMGWYRQSPGHQRELVAAVGINGLTKIGDSVKGRFTISRDNAKNTVYLQMNSLKVEDTAVYYCAAGAYVRFLQNSPDYWGQGTQVTVSS
notes: also called Camelid-derived anti-LILRB4 VHH B1G5-Fc
B8: anti-LILRB4 chimeric antibody 2A3 (antibody, human IgG1, V domains shown)
VH: EVQVVESGGGSVQTGGSLTLSCAASGRTFRSNGMGWFRQAPGKEREFVAAIRWSGRRTTYTDSVKGRFTISSDSAKNTVYLQMSSLKPEDTAVYYCAVDLLPPYGALDKYDYWGQGTQVTVSS
notes: also called Camelid-derived anti-LILRB4 VHH 2A3-Fc
B9: humanized anti-LILRB4 antibody huB1G5-1 (antibody, V domains shown)
VH: B7 VH with A14P, S40A, H43K, T77S, K86R, V87A
notes: Humanized VHH-Fc heavy-chain antibody without light chain; also called Humanized anti-LILRB4 VHH huB1G5-1-Fc
B10: humanized anti-LILRB4 antibody huB1G5-3 (antibody, V domains shown)
VH: B7 VH with A14P, S40A, H43K, N54Q, T77S, K86R, V87A, N106Q
notes: Humanized VHH-Fc heavy-chain antibody without light chain; also called Humanized anti-LILRB4 VHH huB1G5-3-Fc

Where a chain is given by its changes, count along the chain named.

One test addresses T2, cynomolgus monkey LILRB4 protein (ACRO Biosystems, Cat. No.: CDK-C5227) (cynomolgus monkey).
T2 construct: Bought reagent
As to the kind of experiment: BLI (ForteBio Octet RED96e), antibody captured on AHC sensor, antigen in solution, 1:1 model. (Biolayer interferometry detects binding as a change in optical thickness at a sensor tip.)
B1 yielded an equilibrium dissociation constant (Kd) of 11 nM, a koff of 0.00351 s⁻¹ and an association rate constant (kon) of 320000 M⁻¹ s⁻¹.
In the same order, the values of B2 are 10.6 nM, 0.0023 s⁻¹ and 218000 M⁻¹ s⁻¹.
Turning to B3, the dissociation constant (Kd) turned out to be 15.3 nM, the koff worked out at 0.00365 s⁻¹ and the kon came out at 238000 M⁻¹ s⁻¹.

For the next test, the target named is human CD3 protein (Sino Biological, Cat. No.: CT038-H2508H) (human, UniProt P07766 23-126). The description is as above.
Sequence of human CD3 protein (Sino Biological, Cat. No.: CT038-H2508H) (P07766 23-126): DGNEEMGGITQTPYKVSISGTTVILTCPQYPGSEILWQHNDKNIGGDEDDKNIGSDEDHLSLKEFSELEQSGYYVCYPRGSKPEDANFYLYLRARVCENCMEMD
With B1, the Kd came to 26.3 nM, the dissociation rate constant (koff) came to 0.00803 s⁻¹ and the kon is 305000 M⁻¹ s⁻¹.
The like results for B2 were, in that order, 22.6 nM, 0.00549 s⁻¹ and 242000 M⁻¹ s⁻¹.
In the same order, the values of B3 are 35.7 nM, 0.0112 s⁻¹ and 313000 M⁻¹ s⁻¹.

Another test deals with T1, cynomolgus monkey CD3 protein (ACRO …). Described as above.
Molecule B1 returned a dissociation constant Kd of 6.59 nM, an off-rate constant (koff) of 0.0021 s⁻¹ and a kon of 318000 M⁻¹ s⁻¹.
The like results for B2 were, in that order, 6.92 nM, 0.00191 s⁻¹ and 276000 M⁻¹ s⁻¹.
Regarding B3, the dissociation constant Kd amounted to 28.2 nM, the koff was 0.00801 s⁻¹ and the kon stood at 284000 M⁻¹ s⁻¹.

The next test deals with T3, human LILRB4 expressed on CHO-K1 cells (CHO-K1-huLILRB4) (human, UniProt Q8NHJ6 22-280).
T3 construct: also called engineered cells expressing human LILRB4
Briefly: flow cytometry on CHO-K1-huLILRB4 cells. (In general: In flow cytometry, cells or beads pass a laser one at a time.)
For B4, the binding result was “binds”.
Same read-out and setting: next, B5: “binds”; B6: “binds”.
The same measure, in the same setting: under B7 stands “binds”; under B8, “binds”.

For another test, the target named is T4, human LILRB4 endogenously expressed on tumor cells (MV-4-11, HL-60) (human, UniProt Q8NHJ6 22-448).
T4 construct: whole, on cells; also called tumor cells (MV-411) expressing human LILRB4; HL-60 cells that endogenously express human LILRB4
As to the kind of experiment: flow cytometry on MV-4-11 cells.
In the case of B6, the binding result was “binds”.
On the same count and under the same terms, under B9 stands “binds”; under B10, “binds”.

In general, Kd refers to a measure of binding affinity in units of concentration. As usually defined, the koff is the rate constant with which the complex falls apart. As a reminder, the kon is a measure of how fast the partners come together.

The record behind these values is patent publication EP4714975A1 (Nanjing Leads Biolabs Co., Ltd., dated 2026).
